# Results published in patent publication US11789012B2, “Cell death biomarker” (UCL Business PLC, priority 2016, dated 2023).
# B1: rTRAIL: recombinant protein that activates the TRAIL pathway by binding to TRAIL-R1 (DR 4) and TRAIL-R2 (DR 5) (protein, UniProt P50591 1-281, looked up)
# Tumor necrosis factor ligand …: MAMMEVQGGPSLGQTCVLIVIFTVLLQSLCVAVTYVYFTNELKQMQDKYSKSGIACFLKEDDSYWDPNDEESMNSPCWQVKWQLRQLVRKMILRTSEETISTVQEKQQNISPLVRERGPQRVAAHITGTRGRSNTLSSPNSKNEKALGRKINSWESSRSGHSFLSNLHLRNGELVIHEKGFYYIYSQTYFRFQEEIKENTKNDKQMVQYIYKYTSYPDPILLMKSARNSCWSKDAEYGLYSIYQGGIFELKENDRIFVSVTNEHLIDMDHEASFFGAFLVG
# How the values were obtained:
# [1] = test system: MSTO-211H; experiment: rTRAIL response, viability assay, MSTO-211H; type: cell-based, Human; conditions: BAP1 Wild-type
# Description: (§1) Manual “single dose” combination screening was undertaken using 96 well formats. Cells were plated on day 1 in previously optimized seeding densities in 180 μl if media. On day 2 20 μl of a 10× concentration of […] was added. Cells were then allowed to grow for 72 hrs or 6 days and fixed at the end of the assay. Drug wells were compared to DMSO treated control wells.
# (§2) Single agent high throughput 5 point viability screening was undertaken in 384 well formats using robotic liquid handling with fixing with 4% paraformaldehyde and staining for viability with Syto60 nucleic acid dye (Invitrogen) (see below). Single agent dose response curves were derived for each library of 85-95 drugs according to the experiment used, and log IC50 or area under the curve (AUC) metrics were derived for each library compound in each cell line according to a previously derived formula [18].
# (§3) Adherent cell lines were seeded 24 hours before drugging. Cells were trypsinised and counted before seeding at the optimal density for the size of well (96 or 384) and duration of assay. 72 hr after drug treatment cells were fixed with 4% paraformaldehyde for 30 minutes. […] Quantification of fluorescent signal was achieved using excitation/emission wavelength of 630/695 […].
# [2] = test system: H2369; experiment: rTRAIL response, viability assay, H2369; type: cell-based, Human; conditions: BAP1 Wild-type
# Description: as §1, §2, §3
# [3] = test system: NCI-H28; experiment: rTRAIL response, viability assay, NCI-H28; type: cell-based, Human; conditions: BAP1 Essential Splice, heterozygous
# Description: as §1, §2, §3
# [4] = test system: H2373; experiment: rTRAIL response, viability assay, H2373; type: cell-based, Human; conditions: BAP1 Wild-type
# Description: as §1, §2, §3
# [5] = test system: BAP1 mutant cell lines (H2722, H2461, H28 and H2731); experiment: Annexin V/DAPI cell death assay, BAP1 mutant cell lines; type: cell-based, Human; conditions: TRAIL 0-1000 ng/ml, 24 hours
# Description: MPM cell lines were treated with a dose range from 0.5 ng/ml to 100 ng/ml and cell viability was measured using Syto-60 assay. Based on their cell viability, the cell lines were classified into resistant (red), partially sensitive (orange) and sensitive (green). Cell lines were western blotted to probe the expression of BAP1 protein expression. […] Three BAP1 wild-type cell lines (MPP-89, H2869 & H2818) and four BAP1 mutant cell lines (H2722, H2461, H28 and H2731) were treated with TRAIL (0-1000 ng/ml) for 24 hours and cell death quantified using an Annexin V/DAPI cell death assay.
# Adherent mesothelioma cell lines were plated in a 96 well plate at approximately 10000 cells per well. Cells were plated and given 1 day to adhere at which time drug was added. After 48 hrs media, including floating cells, was collected from each well. The remaining adherent cells were washed with PBS and mobilised with 0.05% trypsin in EDTA. All cells were collected into tubes containing the previously removed media and pelleted by centrifugation (300 g, 5 minutes). […] Annexin V−/DAPI− cells were judged to be viable, AnnexinV+/DAPI− cells were considered to be undergoing apoptosis (early apoptotic phase), and Annexin V+/DAPI+ cells were considered late apoptotic or necrotic, and recorded as dead.
# [6] = test system: H2804; experiment: rTRAIL response, viability assay, H2804; type: cell-based, Human; conditions: BAP1 Essential Splice, heterozygous
# Description: as §1, §2, §3
# [7] = test system: mesothelioma cell lines; experiment: Chemical screen, viability of mesothelioma cell lines by BAP1 mutation status; type: cell-based, Human; conditions: 6 day viability assay, 40 ng/ml rTRAIL
# Description: FIG. 2A is a volcano plot showing drug-genome interactions in MPM. […] The Y-axis denotes adjusted p-Value, X-axis denotes effect size. Size of circle indicates number of mutant lines in cohort tested. […] Met 5a is a mesothelial normal control line. FIG. 2C is a scatter plot showing AUC following 6 day viability assay in response to 40 ng/ml rTRAIL (normalised to DMSO treated control) in cell lines discretized by BAP1 mutation status. […] Two-tailed t-test, p=0.015.
# Manual “single dose” combination screening was undertaken using 96 well formats. Cells were plated on day 1 in previously optimized seeding densities in 180 μl if media. On day 2 20 μl of a 10× concentration of media from a stock of drugs was added. […]
# A binary event matrix was compiled for the cell lines in the mesothelioma screen by aggregating copy number and exome data and this was used as input classifiers for genomic correlation. Data from this therapeutic screen was then analysed using a Multivariate Analysis of Variance (MANOVA) to annotate the sensitizing effect of genotype on dose response.
# Adherent cell lines were seeded 24 hours before drugging. Cells were trypsinised and counted before seeding at the optimal density for the size of well (96 or 384) and duration of assay. […] Quantification of fluorescent signal was achieved using excitation/emission wavelength of 630/695 […].
# [8] = test system: H2818; experiment: rTRAIL response, viability assay, H2818; type: cell-based, Human; conditions: BAP1 Wild-type
# Description: as §1, §2, §3
# [9] = test system: RT4; experiment: rTRAIL viability, bladder cancer cell line RT4; type: cell-based; conditions: nonsense mutation in BAP1
# Excerpt: (§4) FIG. 8A is a graph showing the effect of rTRAIL on the viability of various cancer cell lines. Bladder (RT4) and Breast (HCC1187) cancer cell lines with nonsense mutations in BAP1 show sensitivity to rTRAIL while renal cell cancer cell lines (769P & RCC10RGB) with missense mutation and wild-type renal (BB65RCC) and bladder cancer (SW1710) cell lines are resistant to TRAIL.
# [10] = test system: HCC1187; experiment: rTRAIL viability, breast cancer cell line HCC1187; type: cell-based; conditions: nonsense mutation in BAP1
# Excerpt: as §4
# [11] = test system: mutated BAP1 xenografts (H226 C91A); experiment: Xenograft mouse model, H226 BAP1 and H226 C91A tumours; type: in vivo, mice
# Excerpt: FIG. 9A is a protocol of an in vivo experiment. FIG. 9B is a box plot showing the weight of tumours extracted from mice injected with mutant or wild-type BAP1-expressing cells after treatment with rTRAIL. […] FIG. 9C is a graph showing that TRAIL treatment reduces the tumour burden (measured by bioluminescence) of mutated BAP1 xenografts when compared to TRAIL treated wild-type BAP1 xenografts or untreated BAP1 mutated and BAP1 wild-type xenografts.
# Groups of 8 week old NOD.CB17-Prkdcscid/NcrCrl (NOD SCID) mice (Charles River) were injected on each flank with 1 million cells of luciferase transduced mesothelioma cell lines (H226 BAP and H226 C91A) in a 1:1 mixture of matrigel and media. When tumours were established, as assessed by bioluminescent imaging (IVIS), at 14 days following injection of tumour cells, treatment was began with either vehicle or isoleucine zipper TRAIL (izTRAIL). Either vehicle or izTRAIL were given intraperitoneally once daily at a dose of 600 mcg for the duration of the experiment. Tumour size was assessed at days 0, 13, 19, 26 and 41 using bioluminescent imaging (IVIS). Mice were culled at 42 days and tumours removed and weighed. Six mice per group were treated. Researchers were not blinded in these experiments.
# [12] = test system: 769P; experiment: rTRAIL viability, renal cell cancer cell line 769P; type: cell-based; conditions: 769P renal; BAP1 missense mutation
# Excerpt: as §4
# [13] = test system: H2731; experiment: rTRAIL response, viability assay, H2731; type: cell-based, Human; conditions: BAP1 Essential Splice, heterozygous
# Description: as §1, §2, §3
molecule,measurement,setting,value
B1,rTRAIL response,[1],Sensitive**
same,rTRAIL response,[2],Resistant
same,rTRAIL response,[3],Sensitive
same,rTRAIL response,[4],Resistant
same,fraction of cells stained with Annexin V,[5],increased fraction of cells stained with the apoptotic marker Annexin V
same,rTRAIL response,[6],Sensitive
same,sensitivity of BAP1 mutant cells compared with wild-type counterparts,[7],significantly more sensitive
same,rTRAIL response,[8],Resistant
same,response to rTRAIL (viability),[9],sensitivity
same,response to rTRAIL (viability),[10],sensitivity
same,tumour weight at end of experiment,"[11]; mutated BAP1 tumours vs wild-type BAP1 tumours with TRAIL or vehicle-treated tumours, intraperitoneally once daily 600 mcg",significantly less
same,tumour burden (bioluminescence),"[11]; mutated BAP1 xenografts vs wild-type with TRAIL or vehicle-treated xenografts, tracked over 4 weeks",significantly less
same,response to TRAIL (viability),[12],resistant
same,rTRAIL response,[13],Sensitive
